Molecular target: T1, Atox1 (Homo sapiens, UniProt O00244)
T1 chain: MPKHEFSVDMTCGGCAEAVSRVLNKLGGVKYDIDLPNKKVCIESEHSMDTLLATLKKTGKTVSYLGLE
Test: SPR

B1: Memo1 (protein)
chain: MSNRVVCREASHAGSWYTASGPQLNAQLEGWLSQVQSTKRPARAIIAPHAGYTYCGSCAAHAYKQVDPSITRRIFILGPSHHVPLSRCALSSVDIYRTPLYDLRIDQKIYGELWKTGMFERMSLQTDEDEHSIEMHLPYTAKAMESHKDEFTIIPVLVGALSESKEQEFGKLFSKYLADPSNLFVVSSDFCHWGQRFRYSYYDESQGEIYRSIEHLDKMGMSIIEQLDPVSFSNYLKKYHNTICGRHPIGVLLNAITELQKNGMNMSFSFLNYAQSSQCRNWQDSSVSYAAGALTVH
modifications: Cu(I)-loaded Atox1
Kd: 210 nM
